# T1: recombinant human BCMA protein (Sino Biological, 10620-H08H) (human, UniProt Q02223 1-54)
# T1 construct: Bought protein, coated on the ELISA plate
# T1 sequence (looked up): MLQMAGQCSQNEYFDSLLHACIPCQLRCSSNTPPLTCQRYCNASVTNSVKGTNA
# T2: human BCMA expressed on human multiple myeloma cells (U266, MM.1S, RPMI8226) (human, UniProt Q02223 1-184)
# T2 construct: whole, on cells; Endogenous BCMA on tumor cell lines; also called BCMA-expressing tumor cells; BCMA+ cell line
# T2 sequence (looked up): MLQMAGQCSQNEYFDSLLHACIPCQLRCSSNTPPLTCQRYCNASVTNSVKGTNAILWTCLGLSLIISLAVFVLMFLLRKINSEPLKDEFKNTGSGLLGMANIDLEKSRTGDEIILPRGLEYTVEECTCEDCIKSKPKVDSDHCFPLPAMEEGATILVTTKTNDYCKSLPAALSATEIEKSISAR
# B1: humanized anti-BCMA antibody C11D5.3-03 (scFv) (scFv, V domains shown)
# VH: QIQLVQSGSELKKPGASVKVSCKASGYTFTDYSINWVRQAPGQGLEWMGWINTETREPAYAQGFTGRFVFSLDTSVSTAYLQISSLKAEDTAVYFCALDYSYAMDYWGQGTLVTVSS
# VL: EIVLTQSPATLSMSLGERATLSCRASQSVTILGSHLIHWYQQKPGQPPRLLIQLASNVQTGIPARFSGSGSRTDFTLTISSLEEEDFAVYYCLQSRTIPRTFGGGTKVEIK
# notes: For the soluble protein it states neither the domain order nor the linker
# B2: humanized anti-BCMA antibody C11D5.3-04 (scFv) (scFv, V domains shown)
# VH: QIQLVQSGSELKKPGASVKVSCKASGYTFTDYSMNWVRQAPGQGLEWMGWINTETREPTYAQGFTGRFVFSLDTSVSTAYLQISSLKAEDTAVYFCALDYSYAMDYWGQGTLVTVSS
# VL: EIVLTQSPATLSMSLGERATLSCRASESVTILGSHLIHWYQQKPGQPPRLLIQLASNRATGIPARFSGSGSRTDFTLTISSLEEEDFAVYYCLQSRTIPRTFGGGTKVEIK
# notes: as for B1
# B3: murine anti-BCMA antibody C11D5.3 (scFv), reference antibody (scFv, V domains shown)
# VH: QIQLVQSGPELKKPGETVKISCKASGYTFTDYSINWVKRAPGKGLKWMGWINTETREPAYAYDFRGRFAFSLETSASTAYLQINNLKYEDTATYFCALDYSYAMDYWGQGTSVTVSS
# VL: DIVLTQSPPSLAMSLGKRATISCRASESVTILGSHLIHWYQQKPGQPPTLLIQLASNVQTGVPARFSGSGSRTDFTLTIDPVEEDDVAVYYCLQSRTIPRTFGGGTKLEIK
# How the values were obtained:
# [1] = target: T1, recombinant human BCMA protein (Sino …); assay: ELISA, BCMA protein coated at 1 µg/mL, HRP anti-human secondary antibody
# Method: The binding activity of the antibodies to human BCMA protein was assessed using an ELISA method, and the antibody potency was compared using dose-dependent binding curves in ELISA.
# BCMA protein (Sino Biological, 10620-H08H) was diluted to 1 μg/mL in PBS, 100 μL of the protein solution was added to each well of the ELISA plate and incubated at 4° C. overnight. The plate was washed 3 times in wash buffer (PBS, 0.05% Tween 20), and non-specific sites were blocked by adding 200 μl/w PBS+2% BSA blocking solution. C11D5.3-03, C11D5.3-04 or murine antibody C11D5.3 was added and incubated at 37° C. for 2 h. The plate was washed 3 times in wash buffer, and HRP-conjugated goat anti-human secondary antibody was added and incubated for 1 h at room temperature. The plate was washed 3 times in wash buffer, and the bound secondary antibody was detected by adding TMB (HRP substrate) and incubating the plate in the dark at room temperature for 5 to 10 minutes. The enzymatic reaction was stopped by adding 1M of sulfuric acid solution, and the light absorption at 450 nm was measured.
# [2] = target: T2, human BCMA expressed on human multiple …; assay: flow cytometry (FACS) on U266 cells
# Method: (§1) Cells (human myeloma cells expressing BCMA or tissue cells not expressing BCMA) were digested, and 500,000 cells were seeded in 50 μL of PBS containing 2% FBS (FACS buffer) in a U-bottom 96-well plate. The test samples were subjected to a 3-fold serial dilution by diluting ⅓ volume (100 μL) in 200 μL of FACS buffer, starting at a concentration of 300 μg/mL (final concentration). 50 μL of the diluted antibody was added to each well of the cell plate and incubated at 4° C. for 1 hour. After washing twice with FACS buffer, 100 μL of secondary antibody (Abcam ab97003, 5 μg/mL, diluted in FACS buffer) was added to each well, and incubated at 4° C. for 0.5 hours. After staining and washing twice with FACS buffer, 200 μL of FACS buffer was added to each well, and reading was performed on the machine (BD C6plus).
# [3] = target: T2, human BCMA expressed on human multiple …; assay: flow cytometry (FACS) on RPMI8226 cells
# Method: as §1
# [4] = target: T2, human BCMA expressed on human multiple …; assay: flow cytometry (FACS) on MM.1S cells
# Method: as §1
# [5] = target: human Burkitt's lymphoma cell Daudi; assay: flow cytometry (FACS) on Daudi cells, which Example 3 says do not express BCMA
# Method: as §1
Binder,EC50 [1],EC50 [2],EC50 [3],EC50 [4],EC50 [5]
B1,0.011 µg/mL,7.57 µg/mL,2.25 µg/mL,0.81 µg/mL,36.3 µg/mL
B2,0.011 µg/mL,1.99 µg/mL,0.82 µg/mL,0.47 µg/mL,30.7 µg/mL
B3,0.011 µg/mL,4.4 µg/mL,3.81 µg/mL,1.62 µg/mL,
